Measured values: article PMC6858323, “Multiple conformations facilitate PilT function in the type IV pilus” (Nature Communications, 2019)
Substitutions are numbered along the chain they refer to. In names and notes the source's numbering stands.

B1: PilT from Pseudomonas aeruginosa (PilT^Pa), purified (enzyme)
chain: MDITELLAFSAKQGASDLHLSAGLPPMIRVDGDVRRINLPPLEHKQVHALIYDIMNDKQRKDFEEFLETDFSFEVPGVARFRVNAFNQNRGAGAVFRTIPSKVLTMEELGMGEVFKRVSDVPRGLVLVTGPTGSGKSTTLAAMLDYLNNTKYHHILTIEDPIEFVHESKKCLVNQREVHRDTLGFSEALRSALREDPDIILVGEMRDLETIRLALTAAETGHLVFGTLHTTSAAKTIDRVVDVFPAEEKAMVRSMLSESLQSVISQTLIKKIGGGRVAAHEIMIGTPAIRNLIREDKVAQMYSAIQTGGSLGMQTLDMCLKGLVAKGLISRENAREKAKIPENF
notes: PilT, Pseudomonas aeruginosa, expressed from pET28a:PilT^Pa; the cloning of this plasmid is not described; also called apo-PilT^Pa; wild-type PilT^Pa; source: E. coli BL21-CodonPlus, purified (Ni-NTA, Superdex 200 SEC)
B2: K58A PilT from Pseudomonas aeruginosa, purified (enzyme)
chain: B1 chain with K58A
notes: PilT, Pseudomonas aeruginosa, with K58A; the expression construct of the purified mutant is not described; also called K58A PilT^Pa; K58A mutant; source: purified

Molecular target: the molecule itself
Test: cryoEM 2D class averages; PilT^Pa 0.75 mg/ml without added nucleotide, 4 °C; top-view 2D class averages compared with projections of PilT crystal structures

Protein	stoichiometry N
B1	6
B2	6
